Reference: the DeepSol protein solubility set

assay: soluble on expression in E. coli; label from the status in PepcDB or PDB records

| Sequence | soluble on expression in E. coli |
| --- | --- |
| MQGQIIKALAGFYYVESDGQVYQTRARGNFRKKGHTPYVGDWVDFSAEENSEGYILKIHERKNSLVRPPIVNIDQAVVIMSVKEPDFNSNLLDRFLVLLEHKGIHPIVYISKMDLLEDRGELDFYQQTYGDIGYDFVTSKEELLSLLTGKVTVFMGQTGVGKSTLLNKIAPDLNLETGEISDSLGRGRHTTRAVSFYNLNGGKIADTPGFSSLDYEVSRAEDLNQAFPEIATVSRDCKFRTCTHTHEPSCAVKPAVEEGVIATFRFDNYLQFLSEIENRRETYKKVSKKIPK | not soluble |
| MQGSVTEFLKPRLVDIEQISTTHAKVTLEPLERGFGHTLGNALRRILLSSMPGCAVTEVEIEGVLHEYSTKEGVQEDILEILLNLKGLAVRVAEGKDEVFITLNKSGSGPVVAGDITHDGDVEIVNPEHVICHLTSDNAAIAMRIKVERGRGYVPASARIHTEEDERPIGRLLVDATFSPVDKIAYSVEAARVEQRTDLDKLVIDMETNGTLEPEEAIRRAATILAEQLDAFVDLRDVRVPEEKEEKPEFDPILLRPVDDLELTVRSANCLKAEAIHYIGDLVQRTEVELLKTPNLGKKSLTEIKDVLASRGLSLGMRLENWPPASIAED | soluble |
| MQGVKERFLPLGNSGDRAPRPPDGRGRVRPRTQDGVGNHTMARIPKTLKFVVVIVAVLLPVSPRRGPWLGKSAPGAGRGQGDGDTAGMPGPGHLRPGMSGQDELAVGVRGRTGSPGWAGGTRPRGSREAVPLAAPSPRREGSSRIERGRESRWNP | soluble |
| MQHIYVPYHVRDHPMSSVCERFERELRRGAIQLEVICLLENERYGYEIVKKLKESGFRVEEGTLYPLLRRLEGEGILSSRWSTDDTRPRKYYTVTDYGKRVRKKWLELFRSINRSLEDLTEVDQ | not soluble |
| MQHQTLYQDDFVEIFEQDNEVFIKTFKPGLPPKQLNEILSSLPQIQITSFNCLNDALNIVSPSPQKFGRLKERIAITVTPDELKAFVTFNLPREELDIKNRENLIKETYQVLKKKNINFGIKKELFFGDLESGKKYLIAEGVPAVDGEDCKIRMYELEEPRPEIREDGKANYYELKLINKVKAGDWLGERIDATEGFPGKTVYGTTIHPVRGKNYPLSYDKNTVYEVVQNKKVVLYSKIDGAVHYDGNKITVSNHLEIDGDVDFKTGNIIFDGYVTIKGTVTDGFYVEATKDIEINSPLGLGNVKGIKSREGSIYIKGGISSKSFSEISARKNIYTKFVDNVKLSCGGTAHIGFYCINSMVEAKEVFIESIKGNIMGGQVKAEVKITVPVLGSPLEPRTVLILTGFDRKKLSKMLEDIVDRIDRIKEEQMDIKLYLSKQDPFKEMTSRETAEYNSKMQRMSELKAELKSLEEEKKNIARYLKTKGEGEIAITKKVYPNCSIIIKNIQTEIKEPCLATTFFAADGEIKRV | soluble |
| MQILEPQQFATWNEPIEMLYACHSKVKRFCRQLSILPDYLEKHGYTQAVLNDVEQILSYFNRAAPLHHDDEELDFFPQLVKVAPQTQTSIDELEKQHEYLHENWNALSVQLEELISEQRQDIDKHLIERFIQGYDRHIALEEPLFEMGRECLSADILTEMGKHMSARRQVKE | not soluble |
| MQIRFAGIGGQGVVLAGVILGEAAAIEGLRVLQTQDYSSASRGGHSIADVIISNEEIYDVMVTEADVLVALHQLGYETAKSKLKKDGILIIDTDLVKPDREYIGAPFTRIAEETTGLALTVNMVALGYLIGKTQIVKPESVEEAIRRRVPKGTEEINIKAFRKGLEVSMNE | not soluble |
| MQKIKVQDAIGSVLMHDLTQIIPGKTKDARFRKGHVIKEEDIPTLLSMGKEHIFVWDQTPGLIHEDEAAERLAKAVAGPGLSFSETKEGKVNLIAEEDGLIYASEEGIYALNSLEYIILATLHNHRPVKKGQKIAGTRVVPLMIDENVVIEAEGIARRFEEPILQIRPLQSKKVGVVTTGSEVYHGRIQDKFGPVLQRKVAEWGSVLLGQTFADDDVEMIQERIREHIEQGAEMVLVTGGMSVDPDDLTPTAIKGLGGRVDHLWHSCSSRSHAVAGLPGLEHHHHHH | not soluble |
| MQKTLSAIFLFTTLSANAAPYIGLELGIGTANHSFETNYQSDAVSLNPNMEDMFLGGLIGYKFNDNFSFEINYSSYKLEDQYSKFIGIESLNNQQYRKEHEWSSEIEAKQLALISVYSYPIHQQLKTNIKVGVTHTQYEAYSGKYEELELLLNDDIEIRKALLETGLKKNRFGALFSLGLDYNLIPELSVGTELRYQFDKYNDVLSISLNSKYYF | not soluble |
| MQKTVVEIEKASHVLKLLGDKTRLTIMAILKQRECCVCELLEVFDMSQPAISQHLRKLKDAGLVKEDKRGQWIYYSLNSQNELYDFIQDILQHIPDQTENIRKIEETNPTLRCGC | soluble |
| MQLEPQIKTQLQAIVEAARERRAEDVVALDLTEVSSSLEYFVICTASAGLQLNAVQENIREKAQEAGLPRPSIEGPSERWLLLAFGGSIVVHIMTKDAREYYDLEGLWSDAKVLDL | soluble |
| MQLGDKQLVVQLACANQQRHNTNLPNSASAIAGIDLSQGAGRATEILCLMNMVTEDELKADDEYEEILEDVRDECSKYGIVRSLEIPRPYEDHPVPGVGKVFVEFASTSDCQRAQAALTGRKFANRTVVTSYYDVDKYHNRQF | not soluble |
| MQLGETAEEACLRELYEETGLQLEIERLAFIHENFFTGQESDFLNKVNCHELSFYFLMKPLTENLSVKSESFGTDGSKEFLKWIPIAEYKNYKAFPTFFADELKNLSVNSQIKRIVTTELEHHHHHH | not soluble |
| MQLKTEYGKIDPYITKDGSIIRELMHPAIHGNSGQSLAEATVPAGGQTMLHKHAVAEEIYHITEGCGIMTLGGQEFEIRKGDTVCILPGTPHRIMNTGEKELKILCCCAPAYSHEDTELMKLEHHHHHH | soluble |
| MQNGYTYEDYQDTAKWLLSHTEQRPQVAVICGSGLGGLVNKLTQAQTFDYSEIPNFPESTVPGHAGRLVFGILNGRACVMMQGRFHMYEGYPFWKVTFPVRVFRLLGVETLVVTNAAGGLNPNFEVGDIMLIRDHINLPGFSGENPLRGPNEERFGVRFPAMSDAYDRDMRQKAHSTWKQMGEQRELQEGTYVMLGGPNFETVAECRLLRNLGADAVGMSTVPEVIVARHCGLRVFGFSLITNKVIMDYESQGKANHEEVLEAGKQAAQKLEQFVSLLMASIPV | soluble |
| MQNIPPQVQAMLGQLDTYQQQLQLVIQQKQKVQADLNEAKKALEEIETLPDDAQIYKTVGTLIVKTTKEKAVQELKEKIETLEVRLNALNRQEQKINEKVKELTQKIQAALRPPTAG | soluble |
| MQPFDSRQADEVATLLALAEHGSFAAAGRALQRHPSVLSKRLGALERRLGIRLVERTTRQLRFTDEGERLASRFRQAVDLLDEAEHEASLGAAQLRGRLRIALPSAMGRLWLGPLLAEFALAHPQVVLETDYSERFVDIIAEGFDLAIRVGELADSRLVARRLCAHRRILGAAPDYLKRHGVPRIPADLAAHNCLGFSGLHSYPEWKLTRQDEQQPVRVRGSMVSNDNEALLCAARQGLGIFAAGEWLMSRDLEAGRLVRVLPEWKLDADAGVYLVRPSARYATAAASAFRQWVEARFAAGPPWQRQRA | not soluble |
| MQPTPTQRPEAIVHDEKAQLDFARDMSYGDYLHLDELLGAQHPLSPEHNEMLFIVQHQTSELWMKLMLHELRAAIAAIQQDRLQPAFKMLARVSKILEQLVSAWDVLATMTPPEYSALRPYLAHSSGFQSYQYRQIEYLLGNKNAAMLQPHAHRADLLAQVRAAFEAPSLYDEALRFLARSGLAVPAGALQRDWTQPYRADDQVEQAWLTVYRQSERYWNQYQLGEKLTDLEDAFRLWRFRHVTTVERIIGFKRGTGGTSGVTYLRKMLEVVLFPEIWKLRTDLLEHHHHHH | not soluble |
| MQQERTVKVSKYLSKHLRHQPERIGLTPDEGGWVEIDALVAAAAAHGFPFTRQELDHVVATNDKRRFAVEGTRIRASQGHSIAVDLRLPVATPPPYLYHGTVARHLEAIRAEGLRPMNRHDVHLSPDRETATRVGARRGRPVVLPVDAATMHRDGHVFHVSANGVWLTQHVPSRYLRFPAPHLEHHHHHH | not soluble |
| MQQPINYIMNIMHLERDLKRLTSNWSSATGLSLNELRILVYVEQHPGIQIGDVANALNVAKASLAQNIGTLITQGWLKSQPIKQDRRLRVLTLTKAGQDRMKDVDAQLTKSLDTTPATQLADQLSALQL | not soluble |
| MQRFVFGGKLWKFNETFGCYDDYPHVAPFLAVEHFASFPVHPPTFIFSNAAVSNILSMEEIKSVLIRLDELISSNNLHNHPCLISQAGAQATMRLASKDQLRSDWNTSVEIPFCLYVTQNGVCPRQFDYEDLHKQSQWVALFEEVILPLDKMQGSKLSKIAPHQHSSVVKNAIMKSKREKKTSCKKHSKSISGIDSSSSGCNSL | not soluble |
| MQRIELLPLVLDNQTFFQNCPDIIPRIIPFSPCLDGSEVNFICGPLHTGKTSFLRQVAGSLQGLKVYINFEDSRFRDLKPETLQEIKEIAAEYCIKGPEDEEGLAGKDIDDKERPEVPVSYFLDEIHYLPGWGDRVYSLQNDGARVFVTSSSAGIISKEISSRFADGIKIIRLLPFSFKEYLTLKGLRVPRPNFLTPSRCDEMLCLFLQYFENGGFPEIIKSGDFRLSRKYFEETLQKEIIERHTIQDPEGLKKLAVFLISNMASEYSIDTLKRAGGIKDEATVRNYLDYLEEAFLLYRVPMFRHKSEKPDYGKEGENENERESNIPCKVYAGDTGFFKSVFPRYPDSLGLRFENLVFLELLRKGKQVYYFHNTRECDFLIAEKESQKVTAAVQVCLCFGGTAVREREVLGLMEAMEEFGLNEGLILTMDDEEVMEIEGKDGENKRIIINSVWKWMLELEHHHHHH | not soluble |
| MQRRLERFDAKLVQSGLDALLVTGQNNIYYLTDFWGTNATVFITKNRRLFLTDSRYTLIAKQSVHGFDIIESKDPLKDIVKFVEVDKLETIGFDNQVSFAYYQALQAIFEGYTLSPQTNFMEELRMIK | soluble |
| MQRVDLNSDLGESFGAYTIGQDDRVLEHVTSANIACGYHAGDHNVMARTVKLAADKGMGIGAHPGFPDLLGFGRRNIQTDHKDIYNFIVYQVAALNGFCQLHRVRMQHVKPHGALYNMAAKDRVIAEAIAEAIYDIDPSLILFGLSGSELIKAGKKLGLTVANEVFADRTYQPDGTLTPRSEANALIKESERATEQVIQMVKESKVIAVDGSHIPIEADTICVHGDSPTALSFIERLHAQLQVEGVTVTKVSDFLFKLEHHHHHH | not soluble |
| MQSPPHDPASALAIRNHYRQSQSRAARLRLLVDTGQELIQLPPEAMRKCVLQRACAFVAMDHGLLLEWGADNGVQTTARHGSKERLSTLETTADPLAIGPQWLERPGTHLPCVLLLPLRGADEGSFGTLVLANSVAISAPDGEDIESLQLLATLLAAHLENNRLLEALVARDRT | not soluble |
| MQTEHVILLNAQGVPTGTLEKYAAHTADTRLHLAFSSWLFNAKGQLLVTRRALSKKAWPGVWTNSVCGHPQLGESNEDAVIRRCRYELGVEITPPESIYPDFRARATDPSGIVENEVCPVFAARTTSALQINDDEVMDYQWCDLADVLHGIDATPWAFSPWMVMQATNREARKRLSAFTQLKLEHHHHHH | soluble |
| MQTLQEILQQPELENKLLNQAKTVGFVTAMACCPNVLPPEEWLPFLWGGEEIAPFSDPIQLENYFEHIIALWNETRSQLLEGNWQWPTGYLLDEAEIVNQEVRDFCEGMLQGWQLARDDWEVLMPENSSDNTLLGGVLLSLSMLYDPETSIATLYEQGFTGLEQFAEIYHAIPVMLCGITQRGVTLAEAQ | not soluble |
